The target in test [1] is human BDNF (Sino Biological Inc., Catalog 50240-MNAS) (Homo sapiens, UniProt P23560). Nature of the test: SPR.
Test [2] addresses human BDNF (KinExA; supplier not stated) (Homo sapiens, UniProt P23560). Nature of the test: kinetic exclusion assay.

human BDNF (Sino Biological Inc., Catalog 50240-MNAS), sequence (P23560 129-247): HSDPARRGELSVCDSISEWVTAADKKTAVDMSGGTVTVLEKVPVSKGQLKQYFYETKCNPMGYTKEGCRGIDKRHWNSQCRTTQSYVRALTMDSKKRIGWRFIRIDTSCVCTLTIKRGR
human BDNF (KinExA; supplier not stated), sequence (P23560 129-247): as above

B1: B30, humanized and affinity-optimized anti-BDNF IgG1 (antibody, V domains shown)
VH: not shown
VL: SSELTQPPAVSVALGQTVRITCSGAGSGYGYGWYQQKPGQAPVTVIYSNDKRPSGIPDRFSGSSSGNTASLTITGAQAEDEADYYCGTYVSAYYGYAIFGGGTKLTVL
In test [1], B1 displayed a Kd of 0.12 ± 0.01 nM.

B2: B30 Fab (Fab, V domains shown)
VH: not shown
VL: SSELTQPPAVSVALGQTVRITCSGAGSGYGYGWYQQKPGQAPVTVIYSNDKRPSGIPDRFSGSSSGNTASLTITGAQAEDEADYYCGTYVSAYYGYAIFGGGTKLTVL
Turning to B2, in test [2], binding was put at a Kd of 0.00106 nM.

B3: R3bH01, parental chimeric chicken-human IgG1 anti-BDNF antibody (antibody, V domains shown)
VH: AVTLDESGGGLQTPGGGLSLVCKASGFDFSSYDMHWVRQAPGKGLEWVAGIDDGGSDTYYGSAVKGRATISRDNGQSTVRLQLNNLRAEDTGTYYCAKSSYDISWNGHVENIDAWGHGTEVIVSS
VL: ALTQPTSVSTNLGGTVEITCSGAGSGYGYGWFQQKSPGSAPVTVIYSNDKRPSDIPSRFSGSKSGSTGTLTITGVQAEDEAVYFCGTYDSTDAGYAIFGAGTTLTVL
In test [1], B3 returned a Kd of 34.4 ± 5.43 nM.

Source of the values: publication PMC7188400 (mAbs, 2020).
